According to patent publication US20250360220A1, “REGULATION OF TAU USING PROTEIN-LIKE POLYMERS AND USES THEREOF” (NORTHWESTERN UNIVERSITY, priority 2022, published 2025):

Key:
K18 Tau = target: T1, K18 Tau (Homo sapiens, UniProt P10636); test: Tau Kinetics Thioflavin T plate reader assay; type: biochemical; conditions: for PLP or Pep/Tau %: Avg P amplitude divided by Avg Tau amplitude x 100; for PLP or Pep 10 hr (average amplitude, fluorescent intensity readout, of the Tau trace treated with that compound) / PLP or Pep 15 hr (average amplitude) / PLP or Pep 20 hr (average amplitude): K18 Tau 10 μM, heparin, thioflavin T, PBS; for Avg P Amplitude: average of the amplitudes at 10, 15 and 20 hr; for % amp change: change in amplitude relative to control Tau
T1 construct: K18 Tau was first expressed, collected, and purified; His tag (cleaved yes); made in house
Description: (§1) Tau Kinetics Thioflavin T Plate Reader Assay Protocol: First, controls and the effects of varying concentrations of K18 Tau were examined (FIG. 24). In FIG. 24, 1X Tau refers to 10 μM K18 Tau final concentration in the well with 100 μl total volume (i.e., 0.5× Tau refers to 5 μM K18 Tau and 2× Tau refers to 20 μM K18 Tau). Before PLPs were added to K18 Tau, the concentration at which the mimetic aggregative polymers would not activate Thioflavin T was evaluated. Based on the results depicted in FIG. 25, a PLP concentration of 1 μM was selected for further experimentations. […] Given the goal to investigate effects of the PLPs, it was determined that too high of a concentration could easily be adjusted, whereas too low of a concentration could result in a false negative with respect to impact.
PLPs incorporating SEQ ID: 4 (“TP4”), SEQ ID: 2 (“TP7”), or SEQ ID: 10 (“TP12”) as peptide sidechains were tested. The PLPs, K18 Tau (10 μM) and Thio T (Sigma) at a final concentration of 10 μM was added, and aggregation was induced by the addition of a freshly prepared heparin sodium salt solution (Santa Cruz) at a final concentration of 44 μg/ml. For non-induced controls, assay buffer was added in place of heparin solution to a final volume of 100 μl per well. Aggregation reactions were carried out at 37° C. with continuous shaking and monitored via ThT fluorescence (excitation, 444 nm; emission, 485 nm; cutoff, 480 nm) in a Spectramax M5 microplate reader (Molecular Devices). Readings were taken every 5 min for a minimum of 24 h.
Table C. Summary of results depicted in FIGS. 26, 28, and 29 in the event the graphical representations are difficult to ascertain. Values are rounded to the nearest whole number. Tau 10 hr refers to the average amplitude (fluorescent intensity readout) of an n=6 of the control Tau (meaning no peptide or polymer added, just heparin, thioflavin T, and PBS) trace at 10 hour. The same applies to Tau 15 hr and Tau 20 hr. Avg Tau amplitude refers to the average of the amplitudes at 10, 15, and 20 hr in the previous columns. As Tau is the control for each individual plate, and these readings were done on three separate plates, there are 3 different sets of average amplitudes. Similar to the aforementioned, PLP or Pep 10 hr refers to the average amplitude (n=6 for PLP and n=3 for peptide) of the Tau trace treated with that compound at 10 hours. Avg P amplitude refers to the average of the amplitude at the 3 times, or the average of the 3 previous columns. PLP or Pep/Tau % is the result of dividing the Avg P amplitude by Avg Tau amplitude and multiplying by 100. % amp change refers to the change in amplitude given by subtracting Tau average amplitude from P average amplitude and dividing by Tau average amplitude and multiplying by 100.

Circular dichroism = type: physicochemical; conditions: 37° C.; for CD conformation of free peptides: before and after addition of heparin; for CD conformation of PLPs: Tris buffer pH 7.4
Description: The proteomimetic similarities were further investigated using circular dichroism. Samples tested included K18 Tau, PLPs having SEQ ID: 4, SEQ ID: 2, and SEQ ID: 10, as well as said PLPs with K18 Tau. Each of these samples were dissolved in Tris buffer (10 mM Tris, 50 mM NaF, 0.5 mM dithiothreitol) and pH was adjusted to 7.4. Samples were tested with and without the addition of heparin. For samples containing heparin, samples were incubated in the presence of 10 μM heparin sodium salt for 24 hours. Polymers and peptides were run at 37° C., at a concentration of 3 mg/10 ml and K18 Tau was run at 10 uM. Parameters were: 1 mm quartz cuvette, continuous scan at 10 nm/min over 260 to 200 nm, 3 acquisitions averaged for one trace.

[1] = Concentration dependence of polymer activation of Thioflavin T (no Tau); conditions: 1 μM PLP, no Tau (FIG. 25)
From the text: FIG. 25: Concentration dependence of polymer activation of Thioflavin T. TP4: PLP homopolymer incorporating SEQ ID: 4 as peptide sidechains. TP7: PLP homopolymer incorporating SEQ ID: 2 as peptide sidechains. TP4 and TP7 controls: PLP homopolymer, thioflavin T, no heparin, and PBS. The remainder of controls were at baseline and were removed from this FIG. 25 to improve readability. ThioT control: no Tau, no heparin, thioflavin T and PBS. ThioT heparin control: no Tau, no PLPs, thioflavin T, heparin, and PBS. n=3.
as §1

[2] = test system: Mouse striatal cells HdhQ7/7; test: Cell permeability assay with rhodamine labeled PLPs (confocal imaging); type: cell-based; conditions: incubated with the cells for 24 hours
Description: Mouse striatal cells HdhQ7/7 from Coriell Institute were plated in 4-chamber 35 mm round glass-bottom dishes at a density of 50,000 per well. Cells were incubated for 24 hours in a 5% CO2 atmosphere at 33° C. Rhodamine labeled PLPs, rhodamine dye, and vehicle control in 10% FBS DMEM medium without phenol red were incubated with the cells for 24 hours, respectively. The cell nuclei (stained with Hoechst) were accomplished using a 405 nm laser with a 15% laser power. The cell membrane (stained with Wheat Germ Agglutinin, Alexa Fluor 488 Conjugate) was accomplished using a 488 nm laser with a 12% laser power. Cell imaging for Rhodamine fluorescence was accomplished using a 581 nm laser with an 8% laser power.

[3] = Liquid-liquid phase separation (LLPS) of rhodamine labeled PLPs; type: physicochemical
Description: Solutions were dissolved in HEPES buffer: 10 mM HEPES buffer (pH 7.4) with 0.1 mM EDTA and 2 mM DTT, Media buffer: Dulbecco Modified Eagles Medium (high glucose) with 2 mM L-glutamine with 10% Fetal Bovine Serum, 1% Penicillin/Streptomycin, or water. Different crowding agents were also tested using HEPES buffer—PEG and heparin. For heparin, stock solutions of 10 μM of each rhodamine labeled PLP (using either SEQ ID: 4 or SEQ ID: 7 as peptide monomers) and 30 μM of heparin sodium salt were prepared in buffer and kept refrigerated. Before experiments, solutions were given at least 30 min to come to room temperature and experiments were carried out at room temperature. In the microscope room, 20 μL of PLP was added to 5 μL of heparin and mixed gently in a microcentrifuge tube. 5 μL of solution was immediately pipetted onto Fisherbrand glass microscope slides and coverslip applied. All reactions were visualized on Olympus BX53 Fluorescent Microscope using the 581 nm laser to monitor the rhodamine, as well as brightfield. LLPS occurred within 60 min of initiation.

[4] = STEM / dry state TEM of PLP homopolymers; type: physicochemical; conditions: prepared in H2O
Description: Using standard STEM protocols, PLPs having SEQ ID: 2 or SEQ ID: 4 as peptide monomers were prepared in H2O and visualized. […] Further, from the results depicted in FIG. 17, the homopolymer the beta sheet forming nature was confirmed. After putting the PLPs in HEPES LLPS buffer and heating to 37° C. (i.e., body temperature), a time course established the fibrilization of the polymer on dry state TEM. The same fibrilization was seen on purified K18 Tau protein 24 hours after incubation with heparin in PBS as depicted in FIG. 19. The remarkably similar characteristics was a testament to the mimetic capabilities of the PLP.

[5] = HEPES buffer with heparin, room temperature

T1 sequence (P10636 561-685 limits assumed): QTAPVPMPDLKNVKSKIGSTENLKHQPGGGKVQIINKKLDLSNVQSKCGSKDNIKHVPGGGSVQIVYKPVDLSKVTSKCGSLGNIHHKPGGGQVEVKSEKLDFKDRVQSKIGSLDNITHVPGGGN

| Substance | PLP or Pep/Tau % (K18 Tau; 1 μM PLP/Pep) [%] | PLP or Pep 10 hr (average amplitude, fluorescent intensity readout, of the Tau trace treated with that compound) (K18 Tau; 1 μM PLP/Pep) | PLP or Pep 15 hr (average amplitude) (K18 Tau; 1 μM PLP/Pep) | PLP or Pep 20 hr (average amplitude) (K18 Tau; 1 μM PLP/Pep) | Avg P Amplitude (K18 Tau; 1 μM PLP/Pep) | % amp change (K18 Tau; 1 μM PLP/Pep) [%] | PLP or Pep/Tau % (K18 Tau; 10 μM PLP/Pep) [%] | PLP or Pep 10 hr (average amplitude, fluorescent intensity readout, of the Tau trace treated with that compound) (K18 Tau; 10 μM PLP/Pep) | PLP or Pep 15 hr (average amplitude) (K18 Tau; 10 μM PLP/Pep) | PLP or Pep 20 hr (average amplitude) (K18 Tau; 10 μM PLP/Pep) | Avg P Amplitude (K18 Tau; 10 μM PLP/Pep) | % amp change (K18 Tau; 10 μM PLP/Pep) [%] | CD conformation of free peptides (Circular dichroism) | Thioflavin T signal of the polymer [1] | Capability to permeate the striatal cells [2] | Liquid-liquid phase separation [3, 5] | CD conformation of PLPs (Circular dichroism; after addition of heparin) | CD conformation of PLPs (Circular dichroism; before heparin was added) | Conformation by STEM [4] | also measured |
| --- | --- | --- | --- | --- | --- | --- | --- | --- | --- | --- | --- | --- | --- | --- | --- | --- | --- | --- | --- | --- |
| TP7: PLP generated from peptide monomers characterized by SEQ ID: 2 (DRVQIVYKRR) | 110 | 633 | 715 | 672 | 673 | 11 |  |  |  |  |  |  |  | negligible signal | demonstrated the capability to permeate the striatal cells | capable of liquid-liquid phase separation | beta sheet formation | random coil formations | beta sheet conformations |  |
| TP4: PLP generated from peptide monomers characterized by SEQ ID: 4 (VQIINKRR) | 143 | 730 | 936 | 961 | 876 | 44 |  |  |  |  |  |  |  | significant signal | demonstrated the capability to permeate the striatal cells | capable of liquid-liquid phase separation | beta sheet formation | random coil formations | beta sheet conformations | Liquid-liquid phase separation ([3]; HEPES buffer with PEG as crowding agent): induce LLPS phase condensates |
| TP12: PLP generated from peptide monomers characterized by SEQ ID: 10 (VQPINK) | 34 | 116 | 129 | 143 | 129 | −69 | 9 | 36 | 37 | 36 | 36 | −91 |  |  |  |  | beta sheet formation | random coil formations |  | Effect of inhibitor polymer on fibril formation of K18 Tau (K18 Tau; two concentrations, 1 μM and 10 μM, with heparin (FIG. 29)): significantly prevented fibril formation of K18 Tau |

Second part, led by results:

| PLP or Pep/Tau % (K18 Tau; 1 μM PLP/Pep) [%] | PLP or Pep 10 hr (average amplitude, fluorescent intensity readout, of the Tau trace treated with that compound) (K18 Tau; 1 μM PLP/Pep) | PLP or Pep 15 hr (average amplitude) (K18 Tau; 1 μM PLP/Pep) | PLP or Pep 20 hr (average amplitude) (K18 Tau; 1 μM PLP/Pep) | Avg P Amplitude (K18 Tau; 1 μM PLP/Pep) | % amp change (K18 Tau; 1 μM PLP/Pep) [%] | PLP or Pep/Tau % (K18 Tau; 10 μM PLP/Pep) [%] | PLP or Pep 10 hr (average amplitude, fluorescent intensity readout, of the Tau trace treated with that compound) (K18 Tau; 10 μM PLP/Pep) | PLP or Pep 15 hr (average amplitude) (K18 Tau; 10 μM PLP/Pep) | PLP or Pep 20 hr (average amplitude) (K18 Tau; 10 μM PLP/Pep) | Avg P Amplitude (K18 Tau; 10 μM PLP/Pep) | % amp change (K18 Tau; 10 μM PLP/Pep) [%] | Substance | CD conformation of free peptides (Circular dichroism) | Thioflavin T signal of the polymer [1] | Capability to permeate the striatal cells [2] | Liquid-liquid phase separation [3, 5] | CD conformation of PLPs (Circular dichroism; after addition of heparin) | CD conformation of PLPs (Circular dichroism; before heparin was added) | Conformation by STEM [4] | also measured |
| --- | --- | --- | --- | --- | --- | --- | --- | --- | --- | --- | --- | --- | --- | --- | --- | --- | --- | --- | --- | --- |
| 135 | 417 | 411 | 545 | 458 | 11 | 126 | 395 | 448 | 438 | 427 | 4 | DRVQIVYKRR [P7] | beta sheet formation |  |  |  |  |  |  |  |
| 177 | 588 | 558 | 657 | 601 | 46 | 129 | 417 | 497 | 395 | 436 | 6 | VQIINKRR [P4] | beta sheet formation |  |  |  |  |  |  |  |
| 182 | 605 | 555 | 693 | 618 | 50 | 140 | 584 | 413 | 424 | 474 | 15 | VQPINK [P12] | beta sheet formation |  |  |  |  |  |  |  |
